Data published in US20030157553A1, “Methods of assaying for G protein-coupled receptor ligands and modulators” (priority 2000, published 2003).

How the values were obtained:
β2AR [1] = test: Agonist affinity shift assay ([125I] iodopindolol), formation of high agonist affinity complex (HAC); type: binding; details: 1 μM arrestin, FIG. 2A
Source text: (§1) Mutagenesis and Biochemical Characterization of β-Arrestins—Mutations Arg169→Glu (CGG→GAG), Gln394→Ter (CAA→TAA), and Asp383→Ter (GAT→TAG) were introduced by polymerase chain reaction in β-arrestin construct pBARR (Gurevich et al. (1995) J. Biol. Chem. 270:720-731), that was used for in vitro transcription and translation, as described (Gurevich et al. (1995), supra). NcoI/HindIII 1404-base pair open reading frame was then subdloned into appropriately digested Escherichia coliexpression vector pTrcHisB (Invitrogen). […]
Agonist Affinity ShiftAssay—P-β2AR or β2AR (10-15 fmol/assay) was incubated in 0.25 ml of 10 mM Tris-HCl, pH 7.4, 100 mM NaCl (buffer A) containing 0.1 mg/ml bovine serum albumin in the presence of 65-75 fmol of [^125I] iodopindolol (NEN Life Science Products) and the indicated concentrations of arrestins and agonists for 60 min at 22° C. […] Receptor-containing liposomes with bound radioligand were eluted with buffer A (between 0.6 and 1.5 ml), and radioactivity was quantitated in a liquid scintillation counter. Nonspecific binding was determined in the presence of 10 μM alprenolol. […]

β2AR [2] = test: Direct binding assay of in vitro translated tritiated arrestins to purified β2AR reconstituted into phospholipid vesicles; details: unphosphorylated β2AR, activated by 0.1 mM agonist isoproterenol; FIG. 1A
Source text: as §1
Direct Binding Assay—In vitro translated tritiated arrestins (50 fmol) were incubated in 50 mM Tris-HCl, pH 7.5, 0.5 mM MgCl2, 1.5 mM dithiothreitol, 50 mM potassium acetate with 7.5 pmol of the various functional forms of rhodopsin or with P-β2AR or β2AR (100 fmol/assay) in a final volume of 50 μl for 5 min at 37° C. in room light (rhodopsin) or for 60 min at 30° C. in the presence of 0.1 mM -agonist isoproterenol. […] Nonspecific binding determined in the presence of 0.3 μg of liposomes was subtracted.

- binding to activated unphosphorylated receptor (β2AR [2]): significantly higher binding
B1: β-arrestin-(Arg169→Glu): bovine β-arrestin mutant Arg169→Glu that reverses the charge of the putative phosphorylation-sensitive trigger (protein)
chain: MGDKGTRVFKKASPNGKLTVYLGKRDFVDHIDLVEPVDGVVLVDPEYLKERRVYVTLTCAFRYGREDLDVLGLTFRKDLFVANVQSFPPAPEDKKPLTRLQERLIKKLGEHAYPFTFEIPPNLPCSVTLQPGPEDTGKACGVDYEVKAFCAENLEEKIHKRNSVRLVIEKVQYAPERPGPQPTAETTRQFLMSDKPLHLEASLDKEIYYHGEPISVNVHVTNNTNKTVKKIKISVRQYADICLFNTAQYKCPVAMEEADDTVAPSSTFCKVYTLTPFLANNREKRGLALDGKLKHEDTNLASSTLLREGANREILGIIVSYKVKVKLVVSRGGLLGDLASSDVAVELPFTLMHPKPKEEPPHREVPEHETPVDTNLIELDTNDDDIVFEDFARQRLKGMKDDKEEEEDGTGSPRLNDR
- percentage of HAC formed by unphosphorylated β2AR (β2AR [1]): 22±4%
